Source: the RNAGym collection of RNA variant scans (doi:10.7554/elife.90254)

B1: LINE1-full (parent)
chain: UACGUAGGUGGUUUUCCCCUGAUAGUGCUAAGGGGGCCUGGAAGUUUGGACUGGGCAGAGCUCAACACAGCGUGGCAAAGUGGCUGUGGCUAGACUGCCUCUCUGGAUUCCUCGUCACUCAGCAGGGCAUCUCUGAGAGAAAUGCC

Variants of: B1
Experiment: self-cleavage, relative activity (ratio to wild type); higher = more cleavage; in vitro, sequencing; the parent is a self-cleaving ribozyme

Row | Variant | self-cleavage
1 | U102A A138G | 1.62
2 | C99U A142G | 0.58
3 | U102A A141G | 1.42
4 | U100C U104C | 2.14
5 | U100C U104A | 1.37
6 | U96G G137A | 0.08
7 | U100C G127C | 2.48
8 | C98U A142U | 0.47
9 | C98U C146U | 0.32
10 | C99A U108C | 1.2
11 | C101A U132C | 1.39
12 | C98G U112C | 0.12
13 | C101A A142G | 1.53
14 | U100C A142G | 1.93
15 | C99U U119C | 0.96
16 | C99U U119A | 0.79
17 | G97A U143C | 0.16
18 | U102A C113A | 0.97
19 | C99A U119C | 0.82
20 | U102A C116U | 0.97
21 | U100C C128U | 1.58
22 | G97C U102C | 0.14
23 | C101U U134C | 1.45
24 | U100G C116U | 1.61

Row | Variant | self-cleavage
25 | U100C U102C | 1.65
26 | C99U U143A | 0.39
27 | U102A A121G | 1.64
28 | G97U G127A | 0.04
29 | G97U U104A | 0.02
30 | G97A U112A | 0.16
31 | G97A U132C | 0.11
32 | C98U A136G | 0.55
33 | U102A A136G | 1.78
34 | G97U A140G | 0.07
35 | C101A A107G | 1.57
36 | U100C U132C | 1.67
37 | U100C A107U | 1.21
38 | U100C A107G | 1.73
39 | G97A A142C | 0.14
40 | G97A A142G | 0.02
41 | C98U U100G | 0.05
42 | U100C U115C | 2.98
43 | U100C U115A | 1.87
44 | G97A U100C | 0.33
45 | G97A U100A | 0.1
46 | U100C U130C | 2.16
47 | C98A U112C | 0.05
48 | U100A U119C | 1.23

Row | Variant | self-cleavage
49 | U100A C146G | 1.26
50 | U96G U109A | 0
51 | U100A G137A | 0.85
52 | U100A G125A | 1.05
53 | U100A A129G | 1.49
54 | U100A A129U | 1.25
55 | G97A A121G | 0.05
56 | U100C G135A | 1.74
57 | C98U A121U | 0.38
58 | C98U A121G | 0.44
59 | U100C G122U | 1.76
60 | U100C G122C | 2.12
61 | U100C U119C | 1.87
62 | C99A A129U | 0.46
63 | U100C A136U | 1.73
64 | U100C A136G | 1.91
65 | U100A U108G | 0
66 | C101U A136G | 1.8
67 | U100A C116U | 0.4
68 | C99U C145U | 0.82
69 | C99A U109C | 0.41
70 | U100C U108C | 2.05
71 | U100C C146A | 1.75
72 | C99G A129G | 0.3

Row | Variant | self-cleavage
73 | C98U A141G | 0.45
74 | U100C G139U | 2.03
75 | U100C C103A | 0.85
76 | U100C C103U | 1.65
77 | C101U U102C | 1.49
78 | U100C U143C | 1.97
79 | G97U U108C | 0.06
80 | U100A U132C | 0.65
81 | U100A A142G | 0.77
82 | C101U | 1.39
83 | C101G | 1.78
84 | C101A | 1.38
85 | U100G G114A | 1.77
86 | U100A U102C | 1.7
87 | U100A U102A | 0.49
88 | U96G U108G | 0.16
89 | U96G U108C | 0.13
90 | C98U U112C | 0.26
91 | C98U G105C | 0.75
92 | G97U C145U | 0.04
93 | C98A A140G | 0.12
94 | C99U A107G | 0.83
95 | U102A | 1.21
96 | U100C A138U | 1.51

Row | Variant | self-cleavage
97 | U100A C103U | 0.44
98 | U100C G126U | 1.37
99 | C101A C113A | 1.41
100 | C101U G126A | 1.54
101 | U102A A140G | 1.62
102 | U102A A140U | 1.42
103 | U102A A142U | 1.5
104 | U100A A136C | 1.05
105 | U96G A136G | 0.13
106 | C98U U108C | 0.48
107 | U100C A140G | 1.79
108 | U100C A140U | 1.82
109 | G97A U134G | 0.06
110 | G97U C123U | 0.03
111 | C101U A138G | 1.69
112 | G97A A136G | 0.19
113 | U100A | 0.9
114 | U100G | 1.24
115 | U100C | 1.79
116 | U100A U143C | 0.86
117 | U100A U143A | 0.91
118 | U100A U115C | 1.22
119 | U102A A124U | 1.46
120 | U102A A124C | 1.98

Row | Variant | self-cleavage
121 | U100C A129U | 1.92
122 | G97A C111U | 0.07
123 | U100A U134A | 1.02
124 | C99A A136G | 0.99
125 | C101A A141G | 1.64
126 | U96G U132C | 0.16
127 | G97A A140G | 0.11
128 | U100C C145U | 2.29
129 | U100G C113U | 1.49
130 | C99U U112C | 0.36
131 | C99U U112A | 1.12
132 | C101A A124G | 0.98
133 | C101A A129U | 2.2
134 | C101A A129G | 0
135 | U96G U104A | 0.05
136 | U100A C133U | 0.54
137 | U100A U104A | 1.51
138 | U100A U104C | 1.68
139 | U100C U112C | 1.89
140 | U100C A141U | 1.08
141 | C101U U119C | 1.65
142 | C99U A141C | 0.55
143 | C99U A141G | 0.62
144 | U102A C120U | 1.65

Row | Variant | self-cleavage
145 | G97U | 0.06
146 | G97C | 0.19
147 | G97A | 0.11
148 | C101U A141G | 2
149 | U96G A141G | 0
150 | G97A U109C | 0.05
151 | G97A U109A | 0.07
152 | G97C U108A | 0.14
153 | U96G A117C | 0
154 | C98U U134C | 0.3
155 | C98A U102C | 0.13
156 | U96G A142G | 0.17
157 | C98U A138G | 1.15
158 | C101U U115C | 1.49
159 | U100C G125C | 1.89
160 | U100A A124G | 1.02
161 | C99U U134A | 0.37
162 | U100C G105U | 2.13
163 | C98A A141G | 0.17
164 | C101U A121G | 1.72
165 | U102A A107G | 1.06
166 | U102A A107U | 1.66
167 | C98A C101U | 0.09
